Sequences and labels used below:
B1: scFv; the commonest letter at each place (parent)
chain 1: EVKLDETGGGLVQPGRPMKLSCVASGFTFSDYWMNWVRQSPEKGLEWVAQIRNKPYNYETYYSDSVKGRFTISRDDSKSSVYLQMNNLRVEDMGIYYCTGSYYGMDYWGQGTSVTVS
chain 2: DVVMTQTPLSLPVSLGDQASISCRSSQSLVHSNGNTYLRWYLQKPGQSPKVLIYKVSNRFSGVPDRFSGSGSGTDFTLKISRVEAEDLGVYFCSQSTHVPWTFGGGTKLEIK

The series “fluorescein” covers variants of B1. As to the kind of experiment: Kd (Tite-Seq). As to conditions: with fluorescein; format: scFv 4-4-20, heavy + light.
Variants of B1 are the subject of series [1]. Description: yeast surface expression (ratio to wild type); higher = more expressed. As to conditions: format: scFv 4-4-20, heavy + light.

As a reminder, the Kd is a measure of binding affinity in units of concentration.

Take chain 1 EVKLDETGGGLVQPGRPMKLSCVASGFTFSDYWMNWVRQSPEKGLEWVAQIRNKPYNYETYYSDSVKGRFTISRDDSKSSVYLQMNNLRVEDMGIYYCTGSYYGWDYKGQGTSVTVS chain 2 DVVMTQTPLSLPVSLGDQASISCRSSQSLVHSNGNTYLRWYLQKPGQSPKVLIYKVSNRFSGVPDRFSGSGSGTDFTLKISRVEAEDLGVYFCSQSTHVPWTFGGGTKLEIK [chain 1 M105W W108K]: the Kd in the series with fluorescein was determined as 2.88 µM. Also, in series [1], the yeast surface expression is 0.363.
On the same counts, the results for chain 1 EVKLDETGGGLVQPGRPMKLSCVASGFTFSDYWMNWVRQSPEKGLEWVAQIRNKPYNYETYYSDSVKGRFTISRDDSKSSVYLQMNNLRVEDMGIYYCTGSYYGWDYVGQGTSVTVS chain 2 DVVMTQTPLSLPVSLGDQASISCRSSQSLVHSNGNTYLRWYLQKPGQSPKVLIYKVSNRFSGVPDRFSGSGSGTDFTLKISRVEAEDLGVYFCSQSTHVPWTFGGGTKLEIK [chain 1 M105W W108V] are 0.000454 µM and 0.756.
As to chain 1 EVKLDETGGGLVQPGRPMKLSCVASGFTFSDYWMNWVRQSPEKGLEWVAQIRNKPYNYETYYSDSVKGRFTISRDDSKSSVYLQMNNLRVEDMGIYYCTGSYYGYAYWGQGTSVTVS chain 2 DVVMTQTPLSLPVSLGDQASISCRSSQSLVHSNGNTYLRWYLQKPGQSPKVLIYKVSNRFSGVPDRFSGSGSGTDFTLKISRVEAEDLGVYFCSQSTHVPWTFGGGTKLEIK [chain 1 M105Y D106A], in the series with fluorescein, the Kd is at least 10 µM. In series [1], the yeast surface expression was 0.432.
Turning to chain 1 EVKLDETGGGLVQPGRPMKLSCVASGFTFSDYWMNWVRQSPEKGLEWVAQIRNKPYNYETYYSDSVKGRFTISRDDSKSSVYLQMNNLRVEDMGIYYCTGSYYGYDYWGQGTSVTVS chain 2 DVVMTQTPLSLPVSLGDQASISCRSSQSLVHSNGNTYLRWYLQKPGQSPKVLIYKVSNRFSGVPDRFSGSGSGTDFTLKISRVEAEDLGVYFCSQSTHVPWTFGGGTKLEIK [chain 1 M105Y], the Kd with fluorescein came to 0.0129 µM. In series [1], the yeast surface expression is 0.866.
For chain 1 EVKLDETGGGLVQPGRPMKLSCVASGFTFSDYWMNWVRQSPEKGLEWVAQIRNKPYNYETYYSDSVKGRFTISRDDSKSSVYLQMNNLRVEDMGIYYCTGSYYGWDYWGQGTSVTVS chain 2 DVVMTQTPLSLPVSLGDQASISCRSSQSLVHSNGNTYLRWYLQKPGQSPKVLIYKVSNRFSGVPDRFSGSGSGTDFTLKISRVEAEDLGVYFCSQSTHVPWTFGGGTKLEIK [chain 1 M105W], the Kd with fluorescein amounted to 0.00251 µM. Moreover, the yeast surface expression in series [1] worked out at 0.648.
Consider chain 1 EVKLDETGGGLVQPGRPMKLSCVASGFTFSDYWMAWVRQSPEKGLEWVAQIRNKPYNYETYYSDSVKGRFTISRDDSKSSVYLQMNNLRVEDMGIYYCTGSYYGMDYWGQGTSVTVS chain 2 DVVMTQTPLSLPVSLGDQASISCRSSQSLVHSNGNTYLRWYLQKPGQSPKVLIYKVSNRFSGVPDRFSGSGSGTDFTLKISRVEAEDLGVYFCSQSTHVPWTFGGGTKLEIK [chain 1 N35A], for which the Kd with fluorescein was at least 10 µM. For the same variant, the yeast surface expression in series [1] worked out at 0.902.
In the case of chain 1 EVKLDETGGGLVQPGRPMKLSCVASGFTFSDYWMNWVRQSPEKGLEWVAQIRNKPYNYETYYSDSVKGRFTISRDDSKSSVYLQMNNLRVEDMGIYYCTGSYYGYHYLGQGTSVTVS chain 2 DVVMTQTPLSLPVSLGDQASISCRSSQSLVHSNGNTYLRWYLQKPGQSPKVLIYKVSNRFSGVPDRFSGSGSGTDFTLKISRVEAEDLGVYFCSQSTHVPWTFGGGTKLEIK [chain 1 M105Y D106H W108L], the Kd with fluorescein is at least 10 µM. Further, the yeast surface expression in series [1] turned out to be 0.362.
On to chain 1 EVKLDETGGGLVQPGRPMKLSCVASGFTFSDYWMNWVRQSPEKGLEWVAQIRNKPYNYETYYSDSVKGRFTISRDDSKSSVYLQMNNLRVEDMGIYYCTGSYYGWDPWGQGTSVTVS chain 2 DVVMTQTPLSLPVSLGDQASISCRSSQSLVHSNGNTYLRWYLQKPGQSPKVLIYKVSNRFSGVPDRFSGSGSGTDFTLKISRVEAEDLGVYFCSQSTHVPWTFGGGTKLEIK [chain 1 M105W Y107P], for which the Kd in the series with fluorescein was at least 10 µM. Further, the yeast surface expression in series [1] is 0.452.
In the case of chain 1 EVKLDETGGGLVQPGRPMKLSCVASGFTFSDYWMNWVRQSPEKGLEWVAQIRNKPYNYETYYSDSVKGRFTISRDDSKSSVYLQMNNLRVEDMGIYYCTGSYYGWDCWGQGTSVTVS chain 2 DVVMTQTPLSLPVSLGDQASISCRSSQSLVHSNGNTYLRWYLQKPGQSPKVLIYKVSNRFSGVPDRFSGSGSGTDFTLKISRVEAEDLGVYFCSQSTHVPWTFGGGTKLEIK [chain 1 M105W Y107C], the Kd with fluorescein is at least 10 µM. Also, the yeast surface expression in series [1] amounted to 0.264.
On the same counts, the results for chain 1 EVKLDETGGGLVQPGRPMKLSCVASGFTFSDYWMNWVRQSPEKGLEWVAQIRNKPYNYETYYSDSVKGRFTISRDDSKSSVYLQMNNLRVEDMGIYYCTGSYYGYDYWSQGTSVTVS chain 2 DVVMTQTPLSLPVSLGDQASISCRSSQSLVHSNGNTYLRWYLQKPGQSPKVLIYKVSNRFSGVPDRFSGSGSGTDFTLKISRVEAEDLGVYFCSQSTHVPWTFGGGTKLEIK [chain 1 M105Y G109S] are 0.0507 µM and 0.936.
For chain 1 EVKLDETGGGLVQPGRPMKLSCVASGFTFSDYWMNWVRQSPEKGLEWVAQIRNKPYNYETYYSDSVKGRFTISRDDSKSSVYLQMNNLRVEDMGIYYCTGSYYGYDYRGQGTSVTVS chain 2 DVVMTQTPLSLPVSLGDQASISCRSSQSLVHSNGNTYLRWYLQKPGQSPKVLIYKVSNRFSGVPDRFSGSGSGTDFTLKISRVEAEDLGVYFCSQSTHVPWTFGGGTKLEIK [chain 1 M105Y W108R], in the series with fluorescein, the Kd is at least 10 µM. Besides, the yeast surface expression in series [1] was determined as 0.286.
On the same counts, the results for chain 1 EVKLDETGGGLVQPGRPMKLSCVASGFTFSDYWMNWVRQSPEKGLEWVAQIRNKPYNYETYYSDSVKGRFTISRDDSKSSVYLQMNNLRVEDMGIYYCTGSYYGYDYNGQGTSVTVS chain 2 DVVMTQTPLSLPVSLGDQASISCRSSQSLVHSNGNTYLRWYLQKPGQSPKVLIYKVSNRFSGVPDRFSGSGSGTDFTLKISRVEAEDLGVYFCSQSTHVPWTFGGGTKLEIK [chain 1 M105Y W108N] are at least 10 µM and 0.301.

The values are drawn from the FLAb antibody collection (doi:10.7554/elife.23156).
